To fix the notation:
T1: Human BCMA (human, UniProt Q02223 1-54)
T1 sequence: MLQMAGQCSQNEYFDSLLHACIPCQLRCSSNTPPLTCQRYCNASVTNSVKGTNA

T2: human CEA (human, UniProt P06731 35-685)
T2 sequence: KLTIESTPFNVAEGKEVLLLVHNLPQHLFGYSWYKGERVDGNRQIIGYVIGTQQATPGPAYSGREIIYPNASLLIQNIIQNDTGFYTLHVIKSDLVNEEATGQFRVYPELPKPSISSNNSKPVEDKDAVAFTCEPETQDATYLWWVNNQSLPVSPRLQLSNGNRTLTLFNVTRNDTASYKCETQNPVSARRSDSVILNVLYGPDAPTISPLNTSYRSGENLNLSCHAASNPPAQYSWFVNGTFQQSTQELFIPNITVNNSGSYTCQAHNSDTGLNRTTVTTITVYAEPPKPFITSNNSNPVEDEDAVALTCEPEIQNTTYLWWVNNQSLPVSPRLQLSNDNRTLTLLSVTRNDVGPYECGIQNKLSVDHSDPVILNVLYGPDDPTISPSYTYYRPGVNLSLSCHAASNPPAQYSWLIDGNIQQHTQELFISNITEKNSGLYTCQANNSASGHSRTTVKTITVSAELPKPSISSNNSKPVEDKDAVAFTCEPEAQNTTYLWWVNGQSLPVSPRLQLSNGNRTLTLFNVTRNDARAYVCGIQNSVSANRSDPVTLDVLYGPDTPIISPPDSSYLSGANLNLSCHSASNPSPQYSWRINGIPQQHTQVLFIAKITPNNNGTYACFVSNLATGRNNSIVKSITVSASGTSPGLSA

B1: M2IC-G2 (bispecific antibody, human IgG1, kappa)
chain: EVKLDETGGGLVQPGRPMKLSCVASGFTFSDYWMNWVRQSPEKGLEWVAQIRNKPYNYETYYSDSVKGRFTISRDDSKSSVYLQMNNLRVEDMGIYYCTGSYYGMDYWGQGTSVTVSSASTKGPSVFPLAPSSKSTSGGTAALGCLVKDYFPEPVTVSWNSGALTSGVHTFPAVLQSSGLYSLSSVVTVPSSSLGTQTYICNVNHKPSNTKVDKKVEPKSCDKTHTGGGSAAAQVQLVESGGGVVQPGRSLRLSCAASGFTFSTYAMNWVRQAPGKGLEWVARIRSKYNNYATYYADSVKDRFTISRDDSKNTLYLQMNSLRAEDTAVYYCARHGNFGNSYVSWFAYWGQGTLVTVSSGGGGSGGGGSGGGGSQTVVTQEPSLTVSPGGTVTLTCRSSTGAVTTSNYANWVQQKPGQAPRGLIGGTNKRAPGVPARFSGSLLGGKAALTLSGVQPEDEAEYYCALWYSNLWVFGGGTKVEIKGGGGSDKTHTCPPCPAPPVAGPSVFLFPPKPKDTLMISRTPEVTCVVVDVSHEDPEVQFNWYVDGVEVHNAKTKPREEQFNSTFRVVSVLTVVHQDWLNGKEYKCKVSNKGLPAPIEKTISKTKGQPREPQVYTLPPCRDELTKNQVSLWCLVKGFYPSDIAVEWESNGQPENNYKTTPPVLDSDGSFFLYSKLTVDKSRWQQGNVFSCSVMHEALHNHYTQKSLSLSPGK
heavy: EVKLDETGGGLVQPGRPMKLSCVASGFTFSDYWMNWVRQSPEKGLEWVAQIRNKPYNYETYYSDSVKGRFTISRDDSKSSVYLQMNNLRVEDMGIYYCTGSYYGMDYWGQGTSVTVSSASTKGPSVFPLAPSSKSTSGGTAALGCLVKDYFPEPVTVSWNSGALTSGVHTFPAVLQSSGLYSLSSVVTVPSSSLGTQTYICNVNHKPSNTKVDKKVEPKSCDKTHTCPPCPAPPVAGPSVFLFPPKPKDTLMISRTPEVTCVVVDVSHEDPEVQFNWYVDGVEVHNAKTKPREEQFNSTFRVVSVLTVVHQDWLNGKEYKCKVSNKGLPAPIEKTISKTKGQPREPQVCTLPPSRDELTKNQVSLSCAVKGFYPSDIAVEWESNGQPENNYKTTPPVLDSDGSFFLVSKLTVDKSRWQQGNVFSCSVMHEALHNRFTQKSLSLSPGK
light: DVVMTQTPLSLPVSLGDQASISCRSSQSLVHSNGNTYLRWYLQKPGQSPKVLIYKVSNRFSGVPDRFSGSGSGTDFTLKISRVEAEDLGVYFCSQSTHVPWTFGGGTKLEIKRTVAAPSVFIFPPSDEQLKSGTASVVCLLNNFYPREAKVQWKVDNALQSGNSQESVTEQDSKDSTYSLSSTLTLSKADYEKHKVYACEVTHQGLSSPVTKSFNRGEC
notes: structure 2 isotype control; CH2 G2CH2
B2: M2IC-AG2 (bispecific antibody, human IgG1, kappa)
chain: B1 chain with C496A
heavy: B1 heavy with C230A
light: B1 light
notes: structure 2 isotype control; CH2 AG2CH2
B3: M2IC-DG2 (bispecific antibody, human IgG1, kappa)
chain: B1 chain with D531A
heavy: B1 heavy with D265A
light: B1 light
notes: structure 2 isotype control; CH2 DG2CH2
B4: M2IC-PG2 (bispecific antibody, human IgG1, kappa)
chain: B1 chain with C496P
heavy: B1 heavy with C230P
light: B1 light
notes: structure 2 isotype control; CH2 PG2CH2
B5: M2IC-SG2 (bispecific antibody, human IgG1, kappa)
chain: B1 chain with C496S
heavy: B1 heavy with C230S
light: B1 light
notes: structure 2 isotype control; CH2 SG2CH2
B6: M2IC-GG2 (bispecific antibody, human IgG1, kappa)
chain: B1 chain with C496G
heavy: B1 heavy with C230G
light: B1 light
notes: structure 2 isotype control; CH2 GG2CH2
B7: M2IC-DG2D (bispecific antibody, human IgG1, kappa)
chain: B1 chain with D531A, D536A
heavy: B1 heavy with D265A, D270A
light: B1 light
notes: structure 2 isotype control; CH2 DG2DCH2
B8: M2IC-G2D (bispecific antibody, human IgG1, kappa)
chain: B1 chain with D536A
heavy: B1 heavy with D270A
light: B1 light
notes: structure 2 isotype control; CH2 G2DCH2
B9: M3IC-G2 (bispecific antibody)
chain 1: EVKLDETGGGLVQPGRPMKLSCVASGFTFSDYWMNWVRQSPEKGLEWVAQIRNKPYNYETYYSDSVKGRFTISRDDSKSSVYLQMNNLRVEDMGIYYCTGSYYGMDYWGQGTSVTVSSASTKGPSVFPLAPSSKSTSGGTAALGCLVKDYFPEPVTVSWNSGALTSGVHTFPAVLQSSGLYSLSSVVTVPSSSLGTQTYICNVNHKPSNTKVDKKVEPKSCGGGGSGGGGSQVQLVESGGGVVQPGRSLRLSCAASGFTFSTYAMNWVRQAPGKGLEWVARIRSKYNNYATYYADSVKDRFTISRDDSKNTLYLQMNSLRAEDTAVYYCARHGNFGNSYVSWFAYWGQGTLVTVSSASVAAPSVFIFPPSDEQLKSGTASVVCLLNNFYPREAKVQWKVDNALQSGNSQESVTEQDSKDSTYSLSSTLTLSKADYEKHKVYACEVTHQGLSSPVTKSFNRGECDKTHTCPPCPAPPVAGPSVFLFPPKPKDTLMISRTPEVTCVVVDVSHEDPEVQFNWYVDGVEVHNAKTKPREEQFNSTFRVVSVLTVVHQDWLNGKEYKCKVSNKGLPAPIEKTISKTKGQPREPQVYTLPPCRDELTKNQVSLWCLVKGFYPSDIAVEWESNGQPENNYKTTPPVLDSDGSFFLYSKLTVDKSRWQQGNVFSCSVMHEALHNHYTQKSLSLSPGK
chain 2: QTVVTQEPSLTVSPGGTVTLTCRSSTGAVTTSNYANWVQQKPGQAPRGLIGGTNKRAPGVPARFSGSLLGGKAALTLSGVQPEDEAEYYCALWYSNLWVFGGGTKVEIKSSASTKGPSVFPLAPSSKSTSGGTAALGCLVKDYFPEPVTVSWNSGALTSGVHTFPAVLQSSGLYSLSSVVTVPSSSLGTQTYICNVNHKPSNTKVDKKVEPKSC
heavy: B1 heavy
light: B1 light
notes: structure 3 isotype control; CH2 G2CH2
B10: M3IC-DG2 (bispecific antibody)
chain 1: B9 chain 1 with D507A
chain 2: B9 chain 2
heavy: B1 heavy with D265A
light: B1 light
notes: structure 3 isotype control; CH2 DG2CH2
B11: M3IC-AG2 (bispecific antibody)
chain 1: B9 chain 1 with C472A
chain 2: B9 chain 2
heavy: B1 heavy with C230A
light: B1 light
notes: structure 3 isotype control; CH2 AG2CH2

The values that follow come from patent US20220098307A1 (WUHAN YZY BIOPHARMA, published 2022).

Positions count from the first letter of the chain named.

The first assay concerns the target T1, Human BCMA. Briefly: flow cytometry, human tumor cells (table of the BCMA series). From the text:
(§1) 1) Cell preparation: T cells isolated from CD3-positive human whole blood were used for a CD3 end affinity detection of multifunctional antibody molecule; positive tumor cells of corresponding antigen were used for detecting affinity of tumor antigen; for example, CD38-positive MM. 1S cells (purchased from the Cell Resource Center of Shanghai Institutes for Biological Sciences, Chinese Academy of Sciences) or RPMI 8226 cells (purchased from the Cell Resource Center of Shanghai Institutes for Biological Sciences, Chinese Academy of Sciences) were used for CD38 antigen detection, and PD-L1 positive H358 cells (purchased from the Cell Resource Center of Shanghai Institutes for Biological Sciences, Chinese Academy of Sciences) were used for PD-L1 antigen detection, and so on. The cells were resuspended with 1% FBS-PBS, adjusted to a density of 4×10⁶/ml, and 50 μl of cells were taken from each well, and then plated at 2×10⁵ per well. Cell plating was operated on ice
(§2) 2) Addition of the antibody: according to the experimental design, the antibody was diluted gradually, and dilution of antibody was operated on ice. For example, the initial concentration of antibody for dilution was 3000 nM, and the antibody was diluted by 3 times with 11 concentration gradients. The diluted antibody was added to a cell well at 50 μl per well, mixed well, and shaked and incubated at 4° C. 1100 rpm/min for 2 h; after washing, the cells were resuspend in 1% FBS-PBS, and a diluted secondary antibody PE anti-human IgG FC (Biolegend, 409304) was added with a final concentration of 8 ug/ml and a volume of 50 μl/well. At the same time, a well only added with cells and secondary antibody was set as a control, the components were mixed well, and incubated under shaking at 1100 rpm/min at 4° C. for 1 h;
(§3) 5) Data analysis: the data was analyzed by a flow analysis software FlowJo 7.6 thereby obtaining an average fluorescence intensity of the specific antibody concentration, plotted by a Graphpad Prism 5 with the antibody concentration (nM) as an abscissa and the average fluorescence intensity as an ordinate; the EC50 value was calculated by the method of One site—Specific binding, and the EC50 value indicated the cell affinity of the antibody to the corresponding target antigen.
In general terms: In flow cytometry, cells or beads pass a laser one at a time.
Regarding B1, the binding result was “no binding”.
On the same count and under the same terms, as for B2, the entry is “no binding”; as for B3, “no binding”.
As for B4, the binding result is given as “no binding”.
The same measure, in the same setting: as for B5, the entry is “no binding”; as for B6, “no binding”.
Same read-out and setting: for B7 the value was “no binding”; for B8, “no binding”.

In another assay the target is T3, Human CD3ε (human, UniProt P07766 23-126).
T3 construct: CD3 on T cells isolated from human whole blood
Nature of the assay: flow cytometry, human T cells. In a few lines: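 For cell-surface binding, T cells served for the CD3 arm and antigen-positive tumor cells (e.g. MM.1S or RPMI 8226 for CD38) for the tumor arm.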
B1 displayed an EC50 of 408 nM.
Same read-out and setting: as for B9, the figure is 701 nM.
Still for that read-out and setting: for B2 the value was 535 nM; for B3, 357 nM; for B10, 710 nM.
Still for that read-out and setting: for B4 the value was 467 nM; for B5, 481 nM; for B6, 556 nM.
For the molecule B11, it took 674 nM to reach a half-maximal effect (EC50).
Still for that read-out and setting: for B7 the value was 452 nM; for B8, 367 nM.

For another assay, the target named is T2, human CEA. Nature of the assay: flow cytometry, human tumor cells (table of the CEA series).
Description: as §1, §2, §3
With B9, the binding result is recorded as “no binding”.
Regarding B10, the binding result was “no binding”.
The same measure, in the same setting: for B11 the value was “no binding”.

For a further assay, the target named is T4, Monkey CD3 (monkey).
T4 construct: whole, on cells; also called CD3 of monkey CD3 positive T cells
Briefly: flow cytometry, monkey T cells.
The molecule B1 had an EC50 of 488 nM.
Take B2: a half-maximal response (EC50) required 607 nM.
The same measure, in the same setting: as for B3, the figure is 570 nM; as for B4, 656 nM; as for B5, 525 nM.
The same measure, in the same setting: as for B6, the figure is 538 nM; as for B7, 519 nM; as for B8, 538 nM.

The EC50 is the concentration that produces a half-maximal response.
